# Literature values in patent publication US20150056205A1, “STEROID SPARING AGENTS AND METHODS OF USING SAME” (BIOGEN IDEC MA INC., priority 2004, published 2015).
# Legend:
# VLA-4 = VLA-4 (Homo sapiens, UniProt P13612); conditions: cited from earlier work
# α4 subunit of VLA-4 = molecular target: T1, α4 subunit of VLA-4 (Homo sapiens, UniProt P13612); conditions: rat brain cells stimulated with tumor necrosis factor; cited from earlier work
# T1 construct: endogenous in cells; host or cells: human lymphocytes (adhering to TNF-stimulated rat brain cell cultures)
molecule,measurement,setting,value
"mu MAb 21.6: mouse monoclonal antibody specific for the α4 subunit of VLA-4; donor immunoglobulin for the humanized antibodies (antibody, V domains shown) VH: MKCSWVMFFLMAVVTGVNSEVQLQQSGAELVKPGASVKLSCTASGFNIKDTYIHCVKQRPEQGLEWIGRIDPANGYTKYDPKFQGKATITADTSSNTAYLQLSSLTSEDTAVYFCAREGYYGNYGVYAMDYWGQGTSVTV VL: DIQMTQSPSSLSASLGGKVTITCKTSQDINKYMAWYQHKPGKRPRLLIHYTSALQPGIPSRFSGSGSGRDYSFNISNLEPEDIATYYCLQYDNLWTFGGGTKLEIK",binding affinity for VLA-4,VLA-4,about 10^9 M^−1
same,inhibition of human lymphocyte binding to tissue cultures of rat brain cells,α4 subunit of VLA-4,inhibit human lymphocyte binding
